Laboratory results as given in patent US10941182 (Amgen, dated 2021).
One block for each binder: values may come before it. Starred links: 1 amine or outer side, 2 acyl side, 3 side chain; linkers in the order of their positions; H or OH if unused. Non-standard residues stand in square brackets, D forms with d. *: point of attachment. AC4Abu = α-carboxy-4-aminobutyric acid, O=C(C(CCN[*:1])C(=O)[*:3])[*:2]; dBip = N[C@H](Cc1ccc(-c2ccccc2)cc1)C(=O)O; Oic = O=C(O)[C@@H]1C[C@@H]2CCCC[C@@H]2N1; Phe(4-Cl) = N[C@@H](Cc1ccc(Cl)cc1)C(=O)O; dPhe(4-Cl) = N[C@H](Cc1ccc(Cl)cc1)C(=O)O; Phe(4-I) = N[C@@H](Cc1ccc(I)cc1)C(=O)O; γGlu = O=C(O)[C@H](CCC(=O)[*:2])N[*:1]; NMeR = CN[C@@H](CCCNC(=N)N)C(=O)O; Tridecanoyl = CCCCCCCCCCCCC(=O)*; hArg = N=C(N)NCCCC[C@H](N)C(=O)O; Cha = N[C@@H](CC1CCCCC1)C(=O)O; NMeL = CN[C@@H](CC(C)C)C(=O)O; αMeL = CC(C)C[C@](C)(N)C(=O)O; β3hL = CC(C)C[C@H](N)CC(=O)O; αMeP = C[C@@]1(C(=O)O)CCCN1; Nle = CCCC[C@H](N)C(=O)O; Deg = CCC(N)(CC)C(=O)O; AEEA = NCCOCCOCC(=O)O; BLeu = β-leucine

Experiments:
[1] = molecular target: T1, rat APJ receptor (rat, UniProt Q9JHG3 1-377); experiment: cell-based or functional assay
T1 sequence (looked up): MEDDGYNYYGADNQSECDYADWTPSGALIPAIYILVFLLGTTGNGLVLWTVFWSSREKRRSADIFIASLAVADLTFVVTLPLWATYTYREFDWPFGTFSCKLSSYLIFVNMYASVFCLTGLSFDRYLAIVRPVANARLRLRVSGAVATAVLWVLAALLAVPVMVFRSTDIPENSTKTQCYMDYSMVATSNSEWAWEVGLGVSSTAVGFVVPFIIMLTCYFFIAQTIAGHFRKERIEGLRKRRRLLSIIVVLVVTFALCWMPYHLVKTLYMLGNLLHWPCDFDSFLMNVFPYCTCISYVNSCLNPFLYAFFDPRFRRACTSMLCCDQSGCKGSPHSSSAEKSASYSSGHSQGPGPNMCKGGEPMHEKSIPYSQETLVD

[2] = molecular target: T2, human APJ receptor (human, UniProt P35414 1-380); experiment: cell-based or functional assay
T2 sequence (looked up): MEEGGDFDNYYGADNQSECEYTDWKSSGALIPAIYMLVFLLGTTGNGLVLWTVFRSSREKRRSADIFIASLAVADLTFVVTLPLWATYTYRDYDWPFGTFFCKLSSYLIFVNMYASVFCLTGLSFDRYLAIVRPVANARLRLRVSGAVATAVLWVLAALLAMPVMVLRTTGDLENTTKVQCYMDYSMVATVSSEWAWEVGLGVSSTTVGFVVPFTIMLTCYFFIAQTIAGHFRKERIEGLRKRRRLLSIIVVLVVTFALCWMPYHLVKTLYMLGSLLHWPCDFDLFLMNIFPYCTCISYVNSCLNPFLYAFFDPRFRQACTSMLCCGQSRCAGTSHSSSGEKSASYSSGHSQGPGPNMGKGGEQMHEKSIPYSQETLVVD

- EC50 Rat APJ Receptor [1]: 1.67 nM
- EC50 Human APJ Receptor [2]: 2.31 nM
B1: SEQ ID NO: 443 (peptide)
peptide: Tridecanoyl-[γGlu][AEEA][AEEA][Deg]RP[NMeR][Cha]SHKG[Oic][Nle]P[Phe(4-Cl)]-OH
SMILES: CCCCCCCCCCCCC(=O)N[C@@H](CCC(=O)NCCOCCOCC(=O)NCCOCCOCC(=O)NC(CC)(CC)C(=O)N[C@@H](CCCNC(=N)N)C(=O)N1CCC[C@H]1C(=O)N(C)[C@@H](CCCNC(=N)N)C(=O)N[C@@H](CC1CCCCC1)C(=O)N[C@@H](CO)C(=O)N[C@@H](Cc1c[nH]cn1)C(=O)N[C@@H](CCCCN)C(=O)NCC(=O)N1[C@H](C(=O)N[C@@H](CCCC)C(=O)N2CCC[C@H]2C(=O)N[C@@H](Cc2ccc(Cl)cc2)C(=O)O)C[C@@H]2CCCC[C@@H]21)C(=O)O

- EC50 Rat APJ Receptor [1]: 0.727 nM
- EC50 Human APJ Receptor [2]: 0.706 nM
B2: SEQ ID NO: 388 (peptide)
peptide: Tridecanoyl-[γGlu][AEEA][AEEA][BLeu]RP[NMeR][αMeL]SHKG[Oic][Nle][αMeP][Phe(4-Cl)]-OH

- EC50 Rat APJ Receptor [1]: 0.285 nM
- EC50 Human APJ Receptor [2]: 0.0934 nM
B3: SEQ ID NO: 421 (peptide)
peptide: XXXLRPRLSHKGPXPF
modifications: {TDA}[AC4Abu][Aeea][Aeea][BhLeu]RP[NMeArg]LSHKGP[Nle]P[4-Cl-F]{COOH}

- EC50 Rat APJ Receptor [1]: 4.88 nM
- EC50 Human APJ Receptor [2]: 1.96 nM
B4: SEQ ID NO: 552 (peptide)
peptide: Tridecanoyl-[AC4Abu][AEEA][AEEA][BLeu]R[αMeP][hArg][αMeL]SHKG[Oic][Nle][αMeP][Phe(4-Cl)]-OH

- EC50 Rat APJ Receptor [1]: 24.9 nM
- EC50 Human APJ Receptor [2]: 32.8 nM
B5: SEQ ID NO: 298 (peptide)
peptide: Tridecanoyl-[γGlu][AEEA][AEEA][BLeu][hArg]P[NMeR][Cha]SHKG[Oic][Nle]P[dPhe(4-Cl)]-OH

- EC50 Rat APJ Receptor [1]: 0.102 nM
- EC50 Human APJ Receptor [2]: 0.0277 nM
B6: SEQ ID NO: 490 (peptide)
peptide: Tridecanoyl-[γGlu][AEEA][AEEA][hArg]Q[hArg]P[hArg][Cha]SHKG[Oic][Nle]P[Phe(4-Cl)]-OH
SMILES: CCCCCCCCCCCCC(=O)N[C@@H](CCC(=O)NCCOCCOCC(=O)NCCOCCOCC(=O)N[C@@H](CCCCNC(=N)N)C(=O)N[C@@H](CCC(N)=O)C(=O)N[C@@H](CCCCNC(=N)N)C(=O)N1CCC[C@H]1C(=O)N[C@@H](CCCCNC(=N)N)C(=O)N[C@@H](CC1CCCCC1)C(=O)N[C@@H](CO)C(=O)N[C@@H](Cc1c[nH]cn1)C(=O)N[C@@H](CCCCN)C(=O)NCC(=O)N1[C@H](C(=O)N[C@@H](CCCC)C(=O)N2CCC[C@H]2C(=O)N[C@@H](Cc2ccc(Cl)cc2)C(=O)O)C[C@@H]2CCCC[C@@H]21)C(=O)O

- EC50 Rat APJ Receptor [1]: 36.4 nM
- EC50 Human APJ Receptor [2]: 41.5 nM
B7: SEQ ID NO: 300 (peptide)
peptide: Tridecanoyl-[γGlu][AEEA][AEEA][β3hL][hArg]P[NMeR][Cha]SHKG[Oic][Nle]P[dPhe(4-Cl)]-OH
SMILES: CCCCCCCCCCCCC(=O)N[C@@H](CCC(=O)NCCOCCOCC(=O)NCCOCCOCC(=O)N[C@H](CC(=O)N[C@@H](CCCCNC(=N)N)C(=O)N1CCC[C@H]1C(=O)N(C)[C@@H](CCCNC(=N)N)C(=O)N[C@@H](CC1CCCCC1)C(=O)N[C@@H](CO)C(=O)N[C@@H](Cc1c[nH]cn1)C(=O)N[C@@H](CCCCN)C(=O)NCC(=O)N1[C@H](C(=O)N[C@@H](CCCC)C(=O)N2CCC[C@H]2C(=O)N[C@H](Cc2ccc(Cl)cc2)C(=O)O)C[C@@H]2CCCC[C@@H]21)CC(C)C)C(=O)O

- EC50 Rat APJ Receptor [1]: 29.1 nM
- EC50 Human APJ Receptor [2]: 17.9 nM
B8: SEQ ID NO: 321 (peptide)
peptide: Tridecanoyl-[γGlu][AEEA][AEEA][hArg][Nle]Q[hArg]P[dR][NMeL]AHKG[Oic][Phe(4-I)]P[dBip]-OH
SMILES: CCCCCCCCCCCCC(=O)N[C@@H](CCC(=O)NCCOCCOCC(=O)NCCOCCOCC(=O)N[C@@H](CCCCNC(=N)N)C(=O)N[C@@H](CCCC)C(=O)N[C@@H](CCC(N)=O)C(=O)N[C@@H](CCCCNC(=N)N)C(=O)N1CCC[C@H]1C(=O)N[C@H](CCCNC(=N)N)C(=O)N(C)[C@@H](CC(C)C)C(=O)N[C@@H](C)C(=O)N[C@@H](Cc1c[nH]cn1)C(=O)N[C@@H](CCCCN)C(=O)NCC(=O)N1[C@H](C(=O)N[C@@H](Cc2ccc(I)cc2)C(=O)N2CCC[C@H]2C(=O)N[C@H](Cc2ccc(-c3ccccc3)cc2)C(=O)O)C[C@@H]2CCCC[C@@H]21)C(=O)O

- EC50 Rat APJ Receptor [1]: 0.503 nM
- EC50 Human APJ Receptor [2]: 0.305 nM
B9: SEQ ID NO: 374 (peptide)
peptide: Tridecanoyl-[γGlu][AEEA][AEEA][BLeu]RP[NMeR][αMeL]SHKG[Oic][Nle]P[Phe(4-Cl)]-OH

- EC50 Rat APJ Receptor [1]: 2.67 nM
- EC50 Human APJ Receptor [2]: 0.769 nM
B10: SEQ ID NO: 393 (peptide)
peptide: Tridecanoyl-[γGlu][AEEA][AEEA][BLeu]RP[NMeR][Cha]SHKG[Oic][Nle]P[Phe(4-Cl)]-OH

- EC50 Rat APJ Receptor [1]: 1.5 nM
- EC50 Human APJ Receptor [2]: 0.297 nM
B11: SEQ ID NO: 394 (peptide)
peptide: Tridecanoyl-[γGlu][AEEA][AEEA][BLeu]RP[NMeR][BLeu]SHKG[Oic][Nle]P[Phe(4-Cl)]-OH

- EC50 Rat APJ Receptor [1]: 46.6 nM
- EC50 Human APJ Receptor [2]: 36.1 nM
B12: SEQ ID NO: 333 (peptide)
peptide: Tridecanoyl-[γGlu][AEEA][AEEA][hArg][Nle]Q[hArg]P[dR][NMeL]AAKG[Oic][Phe(4-I)]P[dBip]-OH
SMILES: CCCCCCCCCCCCC(=O)N[C@@H](CCC(=O)NCCOCCOCC(=O)NCCOCCOCC(=O)N[C@@H](CCCCNC(=N)N)C(=O)N[C@@H](CCCC)C(=O)N[C@@H](CCC(N)=O)C(=O)N[C@@H](CCCCNC(=N)N)C(=O)N1CCC[C@H]1C(=O)N[C@H](CCCNC(=N)N)C(=O)N(C)[C@@H](CC(C)C)C(=O)N[C@@H](C)C(=O)N[C@@H](C)C(=O)N[C@@H](CCCCN)C(=O)NCC(=O)N1[C@H](C(=O)N[C@@H](Cc2ccc(I)cc2)C(=O)N2CCC[C@H]2C(=O)N[C@H](Cc2ccc(-c3ccccc3)cc2)C(=O)O)C[C@@H]2CCCC[C@@H]21)C(=O)O

- EC50 Rat APJ Receptor [1]: 4.9 nM
- EC50 Human APJ Receptor [2]: 3.04 nM
B13: SEQ ID NO: 315 (peptide)
peptide: Tridecanoyl-[γGlu][AEEA][AEEA][hArg][Nle]Q[hArg]P[dR][NMeL]SHKG[Oic][Phe(4-I)]P[dBip]-OH
SMILES: CCCCCCCCCCCCC(=O)N[C@@H](CCC(=O)NCCOCCOCC(=O)NCCOCCOCC(=O)N[C@@H](CCCCNC(=N)N)C(=O)N[C@@H](CCCC)C(=O)N[C@@H](CCC(N)=O)C(=O)N[C@@H](CCCCNC(=N)N)C(=O)N1CCC[C@H]1C(=O)N[C@H](CCCNC(=N)N)C(=O)N(C)[C@@H](CC(C)C)C(=O)N[C@@H](CO)C(=O)N[C@@H](Cc1c[nH]cn1)C(=O)N[C@@H](CCCCN)C(=O)NCC(=O)N1[C@H](C(=O)N[C@@H](Cc2ccc(I)cc2)C(=O)N2CCC[C@H]2C(=O)N[C@H](Cc2ccc(-c3ccccc3)cc2)C(=O)O)C[C@@H]2CCCC[C@@H]21)C(=O)O

- EC50 Rat APJ Receptor [1]: 12.5 nM
- EC50 Human APJ Receptor [2]: 3.4 nM
B14: SEQ ID NO: 558 (peptide)
peptide: Tridecanoyl-[AC4Abu][AEEA][AEEA][Deg][hArg]P[dR][Cha]SHKG[Oic][Nle]P[Phe(4-Cl)]-OH
SMILES: CCCCCCCCCCCCC(=O)NCCC(C(=O)O)C(=O)NCCOCCOCC(=O)NCCOCCOCC(=O)NC(CC)(CC)C(=O)N[C@@H](CCCCNC(=N)N)C(=O)N1CCC[C@H]1C(=O)N[C@H](CCCNC(=N)N)C(=O)N[C@@H](CC1CCCCC1)C(=O)N[C@@H](CO)C(=O)N[C@@H](Cc1c[nH]cn1)C(=O)N[C@@H](CCCCN)C(=O)NCC(=O)N1[C@H](C(=O)N[C@@H](CCCC)C(=O)N2CCC[C@H]2C(=O)N[C@@H](Cc2ccc(Cl)cc2)C(=O)O)C[C@@H]2CCCC[C@@H]21

- EC50 Rat APJ Receptor [1]: 14.8 nM
- EC50 Human APJ Receptor [2]: 14.4 nM
B15: SEQ ID NO: 327 (peptide)
peptide: Tridecanoyl-[γGlu][AEEA][AEEA][hArg][Nle]Q[hArg]P[dR][NMeL]SAKG[Oic][Phe(4-I)]P[dBip]-OH
SMILES: CCCCCCCCCCCCC(=O)N[C@@H](CCC(=O)NCCOCCOCC(=O)NCCOCCOCC(=O)N[C@@H](CCCCNC(=N)N)C(=O)N[C@@H](CCCC)C(=O)N[C@@H](CCC(N)=O)C(=O)N[C@@H](CCCCNC(=N)N)C(=O)N1CCC[C@H]1C(=O)N[C@H](CCCNC(=N)N)C(=O)N(C)[C@@H](CC(C)C)C(=O)N[C@@H](CO)C(=O)N[C@@H](C)C(=O)N[C@@H](CCCCN)C(=O)NCC(=O)N1[C@H](C(=O)N[C@@H](Cc2ccc(I)cc2)C(=O)N2CCC[C@H]2C(=O)N[C@H](Cc2ccc(-c3ccccc3)cc2)C(=O)O)C[C@@H]2CCCC[C@@H]21)C(=O)O

- EC50 Rat APJ Receptor [1]: 1.02 nM
- EC50 Human APJ Receptor [2]: 0.741 nM
B16: SEQ ID NO: 395 (peptide)
peptide: Tridecanoyl-[γGlu][AEEA][AEEA][BLeu]RP[hArg][BLeu]SHKG[Oic][Nle]P[Phe(4-Cl)]-OH
